Laboratory results reported in the supplement of paper PMC10065799, “High-throughput profiling of sequence recognition by tyrosine kinases and SH2 domains using bacterial peptide display” (eLife, 2023).

Tests used:
c-Src SH2 = assay: SH2 binding enrichment of the phosphorylated peptide, bacterial display (enrichment ratio); higher = better substrate or ligand; peptides without Tyr show the background
Grb2 SH2 = Grb2 SH2 (UniProt P62993); assay: as above
SHP2-C SH2 = assay: as above
FGFR1 = FGFR1 (UniProt P11362); assay: phosphorylation enrichment, bacterial display (enrichment ratio); higher = better substrate or ligand; peptides without Tyr show the background
FGFR1, sequence (P11362 whole entry, looked up): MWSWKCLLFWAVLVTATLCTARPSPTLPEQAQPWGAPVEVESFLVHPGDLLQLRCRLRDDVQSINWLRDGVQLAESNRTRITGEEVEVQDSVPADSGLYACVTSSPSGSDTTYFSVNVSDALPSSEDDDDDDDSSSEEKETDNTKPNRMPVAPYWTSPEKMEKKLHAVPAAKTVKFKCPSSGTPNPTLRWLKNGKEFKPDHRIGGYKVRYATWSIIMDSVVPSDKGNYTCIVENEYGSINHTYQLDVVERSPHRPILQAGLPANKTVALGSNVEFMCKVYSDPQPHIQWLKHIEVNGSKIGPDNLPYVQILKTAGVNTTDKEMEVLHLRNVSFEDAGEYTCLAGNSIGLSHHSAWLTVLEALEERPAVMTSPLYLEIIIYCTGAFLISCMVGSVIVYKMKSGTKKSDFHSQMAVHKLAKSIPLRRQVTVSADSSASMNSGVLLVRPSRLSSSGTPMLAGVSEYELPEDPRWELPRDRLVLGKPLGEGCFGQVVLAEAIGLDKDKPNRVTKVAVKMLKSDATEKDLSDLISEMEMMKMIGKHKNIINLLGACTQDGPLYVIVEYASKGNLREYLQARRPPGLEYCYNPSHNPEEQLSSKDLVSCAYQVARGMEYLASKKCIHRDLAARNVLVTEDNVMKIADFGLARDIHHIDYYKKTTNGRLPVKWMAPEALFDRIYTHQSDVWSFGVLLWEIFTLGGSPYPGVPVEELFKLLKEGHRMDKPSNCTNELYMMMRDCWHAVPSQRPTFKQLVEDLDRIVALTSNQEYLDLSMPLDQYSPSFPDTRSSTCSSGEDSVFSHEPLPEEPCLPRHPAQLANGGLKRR

Fyn = Fyn (UniProt P06241); assay: as above
Fyn, sequence (P06241 whole entry, looked up): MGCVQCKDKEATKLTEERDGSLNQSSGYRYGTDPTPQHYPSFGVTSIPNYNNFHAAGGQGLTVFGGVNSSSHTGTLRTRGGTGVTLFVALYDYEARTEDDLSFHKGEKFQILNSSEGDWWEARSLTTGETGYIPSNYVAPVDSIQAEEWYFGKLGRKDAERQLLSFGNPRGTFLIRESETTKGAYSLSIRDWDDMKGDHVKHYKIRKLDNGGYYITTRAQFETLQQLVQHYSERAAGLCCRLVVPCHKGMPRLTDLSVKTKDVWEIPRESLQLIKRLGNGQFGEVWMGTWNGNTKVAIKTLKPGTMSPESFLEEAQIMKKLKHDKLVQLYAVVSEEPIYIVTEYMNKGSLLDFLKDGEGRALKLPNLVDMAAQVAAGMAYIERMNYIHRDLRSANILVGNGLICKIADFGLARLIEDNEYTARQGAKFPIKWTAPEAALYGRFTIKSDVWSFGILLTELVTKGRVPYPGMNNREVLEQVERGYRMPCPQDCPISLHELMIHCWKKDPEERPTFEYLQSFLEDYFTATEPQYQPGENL

c-Abl (mouse) = assay: as above
Fer (mouse) = assay: as above
Hck = Hck (UniProt P08631); assay: as above
Hck, sequence (P08631 whole entry, looked up): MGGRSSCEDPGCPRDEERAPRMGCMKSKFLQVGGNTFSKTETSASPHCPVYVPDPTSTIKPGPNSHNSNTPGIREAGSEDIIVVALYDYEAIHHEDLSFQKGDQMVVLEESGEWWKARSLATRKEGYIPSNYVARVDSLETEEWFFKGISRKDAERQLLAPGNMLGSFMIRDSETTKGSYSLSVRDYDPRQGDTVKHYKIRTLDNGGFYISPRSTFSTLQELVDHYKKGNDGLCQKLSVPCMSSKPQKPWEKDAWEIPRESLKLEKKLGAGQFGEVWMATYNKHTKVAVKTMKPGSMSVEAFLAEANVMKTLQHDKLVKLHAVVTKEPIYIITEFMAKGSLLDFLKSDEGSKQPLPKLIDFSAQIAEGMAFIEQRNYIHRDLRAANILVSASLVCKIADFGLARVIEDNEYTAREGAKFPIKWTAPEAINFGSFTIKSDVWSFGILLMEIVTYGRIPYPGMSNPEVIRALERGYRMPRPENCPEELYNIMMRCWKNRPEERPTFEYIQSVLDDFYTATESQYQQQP

EPHB1 = EPHB1 (UniProt P54762); assay: as above
Fes = Fes (UniProt P07332); assay: as above
EPHB2 = EPHB2 (UniProt P29323); assay: as above
EPHB2, sequence (P29323 whole entry, looked up): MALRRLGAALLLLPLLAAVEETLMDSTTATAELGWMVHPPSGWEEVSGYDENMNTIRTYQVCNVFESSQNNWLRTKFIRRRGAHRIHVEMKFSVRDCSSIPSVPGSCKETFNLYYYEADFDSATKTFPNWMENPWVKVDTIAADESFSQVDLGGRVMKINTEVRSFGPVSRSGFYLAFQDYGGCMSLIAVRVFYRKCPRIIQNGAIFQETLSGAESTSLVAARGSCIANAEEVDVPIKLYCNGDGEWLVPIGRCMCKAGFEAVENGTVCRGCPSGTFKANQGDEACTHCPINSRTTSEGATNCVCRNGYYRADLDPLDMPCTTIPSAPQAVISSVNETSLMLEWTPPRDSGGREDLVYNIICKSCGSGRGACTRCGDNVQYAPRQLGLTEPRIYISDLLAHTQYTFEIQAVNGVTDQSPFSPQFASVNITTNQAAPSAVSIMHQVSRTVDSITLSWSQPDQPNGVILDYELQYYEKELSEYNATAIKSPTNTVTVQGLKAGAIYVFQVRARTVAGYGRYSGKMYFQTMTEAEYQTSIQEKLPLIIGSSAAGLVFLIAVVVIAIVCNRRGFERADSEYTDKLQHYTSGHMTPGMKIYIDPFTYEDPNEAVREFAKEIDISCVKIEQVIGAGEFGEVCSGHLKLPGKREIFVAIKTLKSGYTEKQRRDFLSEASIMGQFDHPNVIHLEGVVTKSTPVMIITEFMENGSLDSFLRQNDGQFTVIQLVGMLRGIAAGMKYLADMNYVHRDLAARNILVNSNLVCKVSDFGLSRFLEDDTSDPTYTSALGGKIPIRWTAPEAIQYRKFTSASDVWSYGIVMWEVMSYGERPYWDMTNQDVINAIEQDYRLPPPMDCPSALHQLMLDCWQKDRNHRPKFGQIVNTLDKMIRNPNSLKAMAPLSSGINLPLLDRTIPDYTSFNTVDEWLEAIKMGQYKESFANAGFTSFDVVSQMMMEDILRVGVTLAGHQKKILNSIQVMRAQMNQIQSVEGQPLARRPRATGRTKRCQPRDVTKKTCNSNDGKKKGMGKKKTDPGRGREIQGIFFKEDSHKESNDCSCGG

MERTK = MERTK (UniProt Q12866); assay: as above
AncSZ = assay: as above
Jak2 = Jak2 (UniProt O60674); assay: as above
Jak2, sequence (O60674 whole entry, looked up): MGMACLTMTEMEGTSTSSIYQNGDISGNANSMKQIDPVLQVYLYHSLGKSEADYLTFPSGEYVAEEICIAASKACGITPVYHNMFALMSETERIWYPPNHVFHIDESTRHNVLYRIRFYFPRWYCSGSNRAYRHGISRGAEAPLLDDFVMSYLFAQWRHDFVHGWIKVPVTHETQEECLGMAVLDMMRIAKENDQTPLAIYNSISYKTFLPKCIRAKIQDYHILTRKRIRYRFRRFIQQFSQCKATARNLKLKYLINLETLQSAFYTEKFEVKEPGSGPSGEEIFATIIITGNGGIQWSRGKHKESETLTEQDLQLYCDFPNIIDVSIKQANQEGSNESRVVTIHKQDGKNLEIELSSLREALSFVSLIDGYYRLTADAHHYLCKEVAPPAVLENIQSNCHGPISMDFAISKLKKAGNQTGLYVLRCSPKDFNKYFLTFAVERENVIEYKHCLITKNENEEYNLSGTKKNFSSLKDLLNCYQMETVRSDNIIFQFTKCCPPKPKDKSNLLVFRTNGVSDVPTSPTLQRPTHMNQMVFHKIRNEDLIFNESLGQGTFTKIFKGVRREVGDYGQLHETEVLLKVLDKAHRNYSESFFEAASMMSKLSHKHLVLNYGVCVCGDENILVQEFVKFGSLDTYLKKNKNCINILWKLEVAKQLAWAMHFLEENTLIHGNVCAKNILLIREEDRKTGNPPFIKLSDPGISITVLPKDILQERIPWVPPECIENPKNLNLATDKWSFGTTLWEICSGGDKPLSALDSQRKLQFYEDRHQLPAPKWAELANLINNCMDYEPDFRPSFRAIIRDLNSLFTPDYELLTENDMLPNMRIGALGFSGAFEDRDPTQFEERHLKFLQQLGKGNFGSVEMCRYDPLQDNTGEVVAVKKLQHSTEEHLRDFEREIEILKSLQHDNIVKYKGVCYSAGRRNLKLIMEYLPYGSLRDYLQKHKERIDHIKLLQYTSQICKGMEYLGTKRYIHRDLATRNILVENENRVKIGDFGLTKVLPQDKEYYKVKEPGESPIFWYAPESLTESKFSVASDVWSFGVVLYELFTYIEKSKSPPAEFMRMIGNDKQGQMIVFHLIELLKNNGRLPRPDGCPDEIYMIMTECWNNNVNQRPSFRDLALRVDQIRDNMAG

c-Src = assay: as above
FGFR3 = FGFR3 (UniProt P22607); assay: as above
FGFR3, sequence (P22607 whole entry, looked up, the tested form may be a part): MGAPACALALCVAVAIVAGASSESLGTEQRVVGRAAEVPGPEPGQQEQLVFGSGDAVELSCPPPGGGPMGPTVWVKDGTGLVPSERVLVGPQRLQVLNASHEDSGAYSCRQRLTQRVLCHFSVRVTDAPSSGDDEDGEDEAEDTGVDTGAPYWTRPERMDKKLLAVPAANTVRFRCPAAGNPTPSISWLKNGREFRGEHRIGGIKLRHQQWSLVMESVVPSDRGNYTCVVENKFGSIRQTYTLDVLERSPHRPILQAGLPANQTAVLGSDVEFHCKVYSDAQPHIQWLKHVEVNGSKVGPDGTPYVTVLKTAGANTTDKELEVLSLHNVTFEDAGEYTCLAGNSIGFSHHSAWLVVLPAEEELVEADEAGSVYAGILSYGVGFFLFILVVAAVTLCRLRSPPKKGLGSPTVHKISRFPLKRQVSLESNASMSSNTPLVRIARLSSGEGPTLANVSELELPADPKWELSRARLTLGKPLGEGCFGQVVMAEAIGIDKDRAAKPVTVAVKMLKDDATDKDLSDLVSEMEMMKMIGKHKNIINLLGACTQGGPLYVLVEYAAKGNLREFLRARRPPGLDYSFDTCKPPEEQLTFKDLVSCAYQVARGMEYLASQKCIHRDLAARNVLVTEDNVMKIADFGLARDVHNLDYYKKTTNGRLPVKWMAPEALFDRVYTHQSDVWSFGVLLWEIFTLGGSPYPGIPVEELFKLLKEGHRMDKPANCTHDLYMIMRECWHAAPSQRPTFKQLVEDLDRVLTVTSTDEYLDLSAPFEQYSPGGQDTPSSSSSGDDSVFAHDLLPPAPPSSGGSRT
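Wherever SH2 binding enrichment of the phosphorylated peptide, bacterial display is given: peptide library displayed on the E. coli surface as eCPX fusions, selected cells deep-sequenced, score is each peptide's frequency after selection divided by its frequency in the input.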
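Wherever phosphorylation enrichment, bacterial display is given: 11-residue human phosphosite peptides and single-mutation variants displayed on the E. coli surface, counted by deep sequencing, each peptide's frequency after selection divided by its frequency in the unselected input library; frequency after pTyr selection over input frequency; kinase dosed for 20-30% of maximal phosphorylation in three min.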

Row | Sequence | SH2 binding enrichment (c-Src SH2) | SH2 binding enrichment (Grb2 SH2) | SH2 binding enrichment (SHP2-C SH2) | phosphorylation enrichment (FGFR1) | phosphorylation enrichment (Fyn) | phosphorylation enrichment (c-Abl (mouse)) | phosphorylation enrichment (Fer (mouse)) | phosphorylation enrichment (Hck) | phosphorylation enrichment (EPHB1) | phosphorylation enrichment (Fes) | phosphorylation enrichment (EPHB2) | phosphorylation enrichment (MERTK) | phosphorylation enrichment (AncSZ) | phosphorylation enrichment (Jak2) | phosphorylation enrichment (c-Src) | phosphorylation enrichment (FGFR3)
1 | DKPENYRRLDI [VHL_Y175_V170D] | 0.472 | 0.68 | 0.637 | 0.558 | 0.46 | 0.39 | 0.452 | 0.442 | 0.388 | 0.657 | 0.412 | 0.402 | 0.647 | 0.551 | 0.418 | 0.467
2 | DLFRLYICVKE [ARID1B_Y1091_V1092I] | 0.384 | 0.744 | 0.521 | 0.471 | 0.456 | 0.997 | 0.591 | 0.572 | 0.741 | 1.61 | 0.715 | 0.391 | 1.19 | 1.45 | 0.499 | 1
3 | DLGIQYKVLKP [CTNNA1_Y177_A179V] | 0.411 | 0.793 | 0.691 | 0.481 | 0.46 | 0.759 | 0.417 | 0.548 | 0.462 | 1.28 | 0.624 | 0.413 | 1.1 | 1.12 | 0.521 | 0.692
4 | DLHGIYQKLVI | 0.597 | 0.952 | 0.822 | 1.65 | 8.38 | 3.83 | 11.4 | 7.64 | 4.32 | 1.04 | 3.01 | 5.38 | 0.886 | 0.82 | 5.84 | 1.31
5 | DNACQYMLTDR [MYH7_Y164_Y162C] | 0.814 | 0.859 | 0.866 | 0.614 | 0.571 | 0.766 | 0.523 | 0.567 | 0.6 | 1 | 0.612 | 0.532 | 1.02 | 0.959 | 1.24 | 0.691
6 | DRLASYPEKVR [KRT13_Y118_L119P] | 0.511 | 0.845 | 0.636 | 0.403 | 0.35 | 0.41 | 0.329 | 0.329 | 0.323 | 0.57 | 0.413 | 0.34 | 0.395 | 0.403 | 0.331 | 0.413
7 | DRLTVYIDRVR [LMNA_Y45_A43T] | 0.636 | 0.953 | 0.919 | 0.426 | 0.409 | 0.749 | 0.433 | 0.458 | 0.553 | 1.26 | 0.614 | 0.312 | 1.34 | 1.15 | 0.324 | 0.779
8 | DTLASYLDKVR [KRT12_Y139_R135T] | 0.687 | 0.98 | 0.73 | 0.352 | 0.378 | 0.495 | 0.304 | 0.408 | 0.403 | 0.76 | 0.44 | 0.411 | 0.552 | 0.42 | 0.364 | 0.415
9 | DTNIAYWLHPR [POMT1_Y581] | 0.561 | 1.03 | 1.08 | 1.84 | 0.64 | 0.473 | 0.373 | 0.633 | 0.433 | 0.763 | 0.44 | 0.803 | 0.762 | 0.813 | 0.717 | 1.23
10 | DVFRQYASLTG [GANAB_Y379] | 2.5 | 0.893 | 6.85 | 0.395 | 0.379 | 0.573 | 0.417 | 0.448 | 0.422 | 0.709 | 0.44 | 0.406 | 0.568 | 0.589 | 0.402 | 0.428

Second part, led by results:

Row | SH2 binding enrichment (c-Src SH2) | SH2 binding enrichment (Grb2 SH2) | SH2 binding enrichment (SHP2-C SH2) | Sequence | phosphorylation enrichment (FGFR1) | phosphorylation enrichment (Fyn) | phosphorylation enrichment (c-Abl (mouse)) | phosphorylation enrichment (Fer (mouse)) | phosphorylation enrichment (Hck) | phosphorylation enrichment (EPHB1) | phosphorylation enrichment (Fes) | phosphorylation enrichment (EPHB2) | phosphorylation enrichment (MERTK) | phosphorylation enrichment (AncSZ) | phosphorylation enrichment (Jak2) | phosphorylation enrichment (c-Src) | phosphorylation enrichment (FGFR3)
11 | 0.35 | 0.59 | 0.51 | DLFRLYVCVKE [ARID1B_Y1091] | 0.389 | 0.396 | 0.875 | 0.548 | 0.475 | 0.697 | 1.52 | 0.67 | 0.364 | 1.17 | 1.35 | 0.431 | 0.88
12 | 0.721 | 1.23 | 1.09 | DLRGIYQKLVI | 0.825 | 6.38 | 1.76 | 7.47 | 6.68 | 1.81 | 1.4 | 1.32 | 4.99 | 0.826 | 0.869 | 5.56 | 0.854
13 | 0.537 | 1.15 | 0.635 | DMLYQYLKQIE [RPAP3_Y569] | 3.07 | 1.19 | 0.602 | 6.39 | 5.42 | 3.36 | 0.887 | 1.96 | 5.97 | 1.23 | 0.83 | 1.43 | 2.4
14 | 0.609 | 0.902 | 0.766 | DPHKIYEFVNS [IRF3_Y107] | 1.77 | 9.53 | 4.23 | 18.1 | 10.3 | 18.2 | 7.43 | 19.2 | 10.3 | 0.984 | 0.729 | 8.03 | 1.51
15 | 0.493 | 0.824 | 0.727 | DQIDTYELSGA [DNM1_Y354_G359A] | 0.475 | 0.964 | 0.681 | 0.637 | 0.741 | 0.545 | 1.16 | 0.554 | 0.475 | 1.21 | 1.03 | 0.793 | 0.809
16 | 0.429 | 0.984 | 0.604 | DVAKEYGHLLP [HRC_Y99_S96A] | 0.436 | 0.422 | 0.555 | 0.403 | 0.547 | 0.517 | 0.822 | 0.512 | 0.402 | 0.723 | 0.781 | 0.52 | 0.522
